Our source for the activity (fold vs LITAF alone) values is patent US20090062190.

This series has as its system LITAF + STAT6(B) complex (Homo sapiens). The series is described as follows: cell_activity. As to conditions: TNF promoter-luciferase in U2OS cells; inhibited by LITAF shRNA.

Chain of LITAF + STAT6(B) complex (Homo sapiens) (chain, as listed by the source, chain 1 of 2): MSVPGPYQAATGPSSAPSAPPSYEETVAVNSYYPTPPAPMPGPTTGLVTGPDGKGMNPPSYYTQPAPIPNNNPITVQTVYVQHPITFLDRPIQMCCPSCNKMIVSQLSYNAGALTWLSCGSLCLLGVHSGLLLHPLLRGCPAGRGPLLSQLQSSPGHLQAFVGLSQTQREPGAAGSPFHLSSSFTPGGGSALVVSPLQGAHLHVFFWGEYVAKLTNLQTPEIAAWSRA
Chain of LITAF + STAT6(B) complex (Homo sapiens) (chain, as listed by the source, chain 2 of 2): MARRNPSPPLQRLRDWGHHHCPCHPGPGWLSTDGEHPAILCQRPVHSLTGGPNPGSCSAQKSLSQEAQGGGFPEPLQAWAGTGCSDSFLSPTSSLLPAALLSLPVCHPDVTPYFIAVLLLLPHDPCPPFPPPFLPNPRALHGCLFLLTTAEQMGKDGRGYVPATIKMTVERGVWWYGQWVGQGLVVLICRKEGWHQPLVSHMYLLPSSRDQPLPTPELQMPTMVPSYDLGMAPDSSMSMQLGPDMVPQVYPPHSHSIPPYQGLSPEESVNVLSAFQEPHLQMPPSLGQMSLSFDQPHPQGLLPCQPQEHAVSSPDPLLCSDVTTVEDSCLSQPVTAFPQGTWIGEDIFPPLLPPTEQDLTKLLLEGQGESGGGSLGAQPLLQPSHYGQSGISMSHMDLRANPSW

Take hTNF-alpha promoter DNA probe: the activity (fold vs LITAF alone) was found to be 1.5.
